This is an account of results in article PMC5882710, “Amphotericin B-conjugated polypeptide hydrogels as a novel innovative strategy for fungal infections” (Royal Society Open Science, 2018).

Data set [1] deals with Candida albicans. As to the kind of experiment: Time-kill curves at 1 x MIC and 2 x MIC. It is filed as cell-based. The note with it: C. albicans, 28°C, n = 3; for time for which antifungal activity is exhibited in time-kill curves: sampled 0, 1, 2, 4, 6, 8, 12 and 24 h. As for the experimental part:
(§1) The minimum inhibitory concentration (MIC) of the Dex, AmB, Nap-FFDKY, Npx-FFDKY, Fmoc-FFDKY, Nap-AmB, Npx-AmB and Dex-AmB hydrogels was determined by a serial 2-fold dilution of test samples. Fourteen different concentrations of drugs and hydrogels were prepared in DMF solution. One millilitre of the fungal strain […] colony-forming unit (CFU)/tube was inoculated into each tube containing different concentrations (1 ml) of test samples and incubated at 28°C (200 rpm) for 24 h. The MIC was defined as the minimum concentration of the sample inhibiting the visible growth of the microorganism. The experiment was repeated at least three times. Based on the values of MIC, 0.1 ml of the fungal strain containing different concentrations of test samples which inhibited the visible growth of the microorganism was subcultivated on the Sabouraud's dextrose agar plates, and incubated at 28°C for 48 h. The minimum bactericidal concentration (MBC) determination was defined as the minimum concentration of the sample sterilizing the visible growth of the microorganism (lower than 5 CFU/plate). The experiment was repeated at least three times. Based on the values of MIC, the fungal strain containing 1 × MIC and 2 × MIC concentrations of test samples was incubated at 28°C. A test suspension containing 0.1 ml was taken out and used to evaluate fungus colonies at 0, 1, 2, 4, 6, 8, 12 and 24 h.

Data set [2] is described as follows: In vitro drug release of AmB or Dex from hydrogels. The format is physicochemical. The following applies: for final drug release percentage of AmB after 12 h: 0.3 ml PBS pH 7.4 containing trypsin 1 µg ml^−1, 37°C, HPLC-UV 383 nm; for final drug release percentage of AmB after 12 h / final drug release percentage of Dex after 12 h: n = 3; for constant release rate of AmB / final drug release percentage of Dex after 12 h / constant release rate of Dex: PBS pH 7.4 with trypsin 1 µg ml^−1, 37°C; for constant release rate of AmB / constant release rate of Dex: entire measurement period (12 h); for diffusion exponent n of AmB release (Mt/M∞ = k·t^n) / rate constant k of AmB release (Mt/M∞ = k·t^n) / diffusion exponent n of Dex release (Mt/M∞ = k·t^n) / rate constant k of Dex release (Mt/M∞ = k·t^n): fit of release data, PBS pH 7.4, 37°C; for final drug release percentage of Dex after 12 h: HPLC-UV 240 nm. As for the experimental part:
The 2.0 wt%, 3.0 wt% and 4.0 wt% of Nap-AmB, Npx-AmB and Dex-AmB hydrogels within the 0.3 ml PBS solution containing trypsin (1 µg ml^−1) were prepared for drug release study. A quantity of 0.2 ml of the upper buffer solution was taken out and used to run HPLC at every 30 min and 0.2 ml of fresh PBS buffer solution containing trypsin (1 µg ml^−1) was added back each time. The experiments were conducted at 37°C. The areas of peaks in HPLC spectra were used to determine the percentage of AmB or Dex released from their corresponding hydrogels. The liquid chromatography system (Agilent 1200 series, America) comprised Degasser G1322A, Quaternary pump G1312B, Thermostated auto sampler HiP-ALS G1367C, column oven G1316A and ultraviolet detector G1314A. Separation was achieved using a SepaxGP-C18 reversed-phase column (250 mm × 4.6 mm internal diameter, 5 µm particle size) (America). The mobile phase of AmB analysis was acetonitrile-water (43 : 57, containing 0.05% TFA) at a flow-rate of 1 ml min^−1. Chromatography was carried out at 30°C and the detector wavelengths were set at 383 nm. The mobile phase of Dex analysis was acetonitrile-water (45 : 55, containing 0.05% TFA) at a flow rate of 1 ml min^−1. Chromatography was carried out at 30°C and the detector wavelengths were set at 240 nm. The experiment was conducted in three parallel experiments. […] Mt/M∞ is the fractional drug release, Mt is the amount of drug released at time t, M∞ is the maximum amount of drug released at time ∞, t is the release time, k is a rate constant of kinetic release and n is the diffusion exponent, characteristic of the drug release mechanism.

Data set [3] is described as follows: Hydrogel formation (gelation time, minimum gel concentration). It is filed as physicochemical. The note with it: for minimum gel concentration needed for gelation: PBS solutions at 37°C; for gelation time: room temperature, PBS pH 7.4, 2 equiv. Na2CO3. As for the experimental part:
General procedure for the formation of hydrogels: all the compounds dissolved in phosphate-buffered saline (PBS, pH 7.4). 2 equiv. of Na2CO3 (0.1 mol l^−1) were used to neutralize the carboxyl groups (─COOH) of compounds and adjust the pH to neutral. Then the hydrogels were formed at room temperature (22–25°C) or 37°C within 30 min.

The nature of data set [4]: Solubility of hydrogelators in aqueous solutions. The following applies: water, PBS solutions (pH = 7.4) and culture solutions.
Data set [5] relates to Candida albicans. Put plainly: microbe, parasite or virus in culture. The format is cell-based. The note with it: for MBC: 48 h. As for the experimental part:
as §1

Values after ≈ are worked out from the molar mass of the structure shown.

As to `C[C@@H]1[C@H](O)[C@@H](C)/C=C/C=C/C=C/C=C/C=C/C=C/C=C/[C@H](O[C@@H]2O[C@H](C)[C@@H](O)[C@H](N)[C@@H]2O)C[C@@H]2O[C@](O)(C[C@@H](O)C[C@@H](O)[C@H](O)CC[C@@H](O)C[C@@H](O)CC(=O)O[C@H]1C)C[C@H](O)[C@H]2C(=O)NCCCC[C@H](NC(=O)[C@H](CC(=O)O)NC(=O)[C@H](Cc1ccccc1)NC(=O)[C@H](Cc1ccccc1)NC(=O)Cc1ccc2ccccc2c1)C(=O)N[C@@H](Cc1ccc(O)cc1)C(=O)O` [Nap-AmB], in the data set with Candida albicans [1], the “time for which antifungal activity is exhibited in time-kill curves” value was 2 h. Further, in data set [2] (2.0 wt% hydrogel), the “final drug release percentage of AmB after 12 h” value was found to be 36.3%, the “constant release rate of AmB” value is listed as “about 0.3188 mg ml^−1 per hour”, the “diffusion exponent n of AmB release (Mt/M∞ = k·t^n)” value (from here on “diffusion exponent n of AmB release”) is 0.6874 and the “rate constant k of AmB release (Mt/M∞ = k·t^n)” value (from here on “rate constant k of AmB release”) is recorded as “approximately 0.2503”. For the same compound, in data set [2] (3.0 wt% hydrogel), the “final drug release percentage of AmB after 12 h” value was determined as 47.3%, the “constant release rate of AmB” value is roughly 0.6114 mg ml^−1 per hour, the “diffusion exponent n of AmB release” value is listed as 0.5722 and the “rate constant k of AmB release” value was roughly 0.4662. In data set [2] (4.0 wt% hydrogel), the “final drug release percentage of AmB after 12 h” value was 62.1%, the “constant release rate of AmB” value was roughly 1.015 mg ml^−1 per hour, the “diffusion exponent n of AmB release” value is 0.5481 and the “rate constant k of AmB release” value is recorded as roughly 0.6379. Further, in data set [3], the “minimum gel concentration needed for gelation” value is reported as “about 0.5 wt%” and the gelation time is listed as 3 min. For the same compound, the “solubility in aqueous solutions (in words)” value in data set [4] is “highly soluble”.

In the case of `C[C@@H]1[C@H](O)[C@@H](C)/C=C/C=C/C=C/C=C/C=C/C=C/C=C/[C@H](O[C@@H]2O[C@H](C)[C@@H](O)[C@H](N)[C@@H]2O)C[C@@H]2O[C@](O)(C[C@@H](O)C[C@@H](O)[C@H](O)CC[C@@H](O)C[C@@H](O)CC(=O)O[C@H]1C)C[C@H](O)[C@H]2C(=O)NCCCC[C@H](NC(=O)[C@H](CC(=O)O)NC(=O)[C@H](Cc1ccccc1)NC(=O)[C@H](Cc1ccccc1)NC(=O)CCC(=O)OCC(=O)[C@@]1(O)[C@H](C)C[C@H]2[C@@H]3CCC4=CC(=O)C=C[C@]4(C)[C@@]3(F)[C@@H](O)C[C@@]21C)C(=O)N[C@@H](Cc1ccc(O)cc1)C(=O)O` [Dex-AmB], the MIC in the data set on Candida albicans [5] (24 h) came out at 40.1 µg/mL (≈ 19.1 µM). Besides, in the data set with Candida albicans [5], the MBC was 643 µg/mL (≈ 306 µM). Moreover, in the data set on Candida albicans [1], the “speed of fungistatic effect in time-kill curves (in words)” value is “exert fungistatic effect more quickly than AmB and Nap-AmB hydrogels”; the “time for which antifungal activity is exhibited in time-kill curves” value is recorded as 2 h. Also, in data set [2] (2.0 wt% hydrogel), the “final drug release percentage of AmB after 12 h” value worked out at 16.3%, the “final drug release percentage of Dex after 12 h” value is 28.5%, the “constant release rate of AmB” value is “about 0.1123 mg ml^−1 per hour” and the “constant release rate of Dex” value is reported as “about 0.08359 mg ml^−1 per hour”. For the same compound, in data set [2] (2.0 wt% hydrogel), the “diffusion exponent n of AmB release” value amounted to 0.8265, the “diffusion exponent n of Dex release (Mt/M∞ = k·t^n)” value (“diffusion exponent n of Dex release” for short) amounted to 0.4404, the “rate constant k of AmB release” value is “about 0.2283” and the “rate constant k of Dex release (Mt/M∞ = k·t^n)” value (“rate constant k of Dex release” below) is given as “approximately 0.1211”. Further, in data set [2] (3.0 wt% hydrogel), the “final drug release percentage of AmB after 12 h” value came out at 19.2%, the “final drug release percentage of Dex after 12 h” value is given as 39.6%, the “constant release rate of AmB” value is recorded as roughly 0.1994 mg ml^−1 per hour and the “constant release rate of Dex” value is reported as roughly 0.1743 mg ml^−1 per hour. In data set [2] (3.0 wt% hydrogel), the “diffusion exponent n of AmB release” value came out at 0.6474, the “diffusion exponent n of Dex release” value was 0.3576, the “rate constant k of AmB release” value is on record as roughly 0.3669 and the “rate constant k of Dex release” value is on record as roughly 0.3039. For the same compound, in data set [2] (4.0 wt% hydrogel), the “final drug release percentage of AmB after 12 h” value came out at 24.4%, the “final drug release percentage of Dex after 12 h” value is given as 46.8%, the “constant release rate of AmB” value was roughly 0.3517 mg ml^−1 per hour and the “constant release rate of Dex” value is given as roughly 0.2867 mg ml^−1 per hour. In data set [2] (4.0 wt% hydrogel), the “diffusion exponent n of AmB release” value was found to be 0.7971, the “diffusion exponent n of Dex release” value is on record as 0.2587, the “rate constant k of AmB release” value was roughly 0.6436 and the “rate constant k of Dex release” value is given as roughly 0.6024. For the same compound, in data set [3], the “minimum gel concentration needed for gelation” value is recorded as roughly 2.0 wt% and the gelation time entry is given as “approximately 30 min”. The “solubility in aqueous solutions (in words)” value in data set [4] is given as “highly soluble”.

Consider `C[C@@H]1C[C@H]2[C@@H]3CCC4=CC(=O)C=C[C@]4(C)[C@@]3(F)[C@@H](O)C[C@]2(C)[C@@]1(O)C(=O)CO` [Dex, dexamethasone], for which the “antifungal effect against C. albicans (in words)” value with Candida albicans [5] (MIC/MBC test, serial 2-fold dilution, 28°C, 24 h) was “less antifungal effective”.

With `COc1ccc2cc([C@H](C)C(=O)N[C@@H](Cc3ccccc3)C(=O)N[C@@H](Cc3ccccc3)C(=O)N[C@@H](CC(=O)O)C(=O)N[C@@H](CCCCNC(=O)[C@H]3[C@@H]4C[C@@H](O[C@@H]5O[C@H](C)[C@@H](O)[C@H](N)[C@@H]5O)/C=C/C=C/C=C/C=C/C=C/C=C/C=C/[C@H](C)[C@@H](O)[C@@H](C)[C@H](C)OC(=O)C[C@H](O)C[C@H](O)CC[C@@H](O)[C@H](O)C[C@H](O)C[C@](O)(C[C@@H]3O)O4)C(=O)N[C@@H](Cc3ccc(O)cc3)C(=O)O)ccc2c1` [Npx-AmB], in the data set on Candida albicans [5] (24 h), the MIC turned out to be 43.7 µg/mL (≈ 23.8 µM). For the same compound, in the data set with Candida albicans [5], the MBC amounted to 349 µg/mL (≈ 190 µM). Also, in the data set with Candida albicans [1], the “speed of fungistatic effect in time-kill curves (in words)” value is “exert fungistatic effect more quickly than AmB and Nap-AmB hydrogels”; the “time for which antifungal activity is exhibited in time-kill curves” value is on record as 2 h. In addition, in data set [2] (2.0 wt% hydrogel), the “final drug release percentage of AmB after 12 h” value amounted to 30.0%, the “constant release rate of AmB” value was “about 0.2406 mg ml^−1 per hour”, the “diffusion exponent n of AmB release” value turned out to be 0.7428 and the “rate constant k of AmB release” value is recorded as “approximately 0.2846”. In data set [2] (3.0 wt% hydrogel), the “final drug release percentage of AmB after 12 h” value was 38.9%, the “constant release rate of AmB” value is recorded as roughly 0.4837 mg ml^−1 per hour, the “diffusion exponent n of AmB release” value is 0.7784 and the “rate constant k of AmB release” value is on record as roughly 0.3358. For the same compound, in data set [2] (4.0 wt% hydrogel), the “final drug release percentage of AmB after 12 h” value is recorded as 51.3%, the “constant release rate of AmB” value is on record as roughly 0.8332 mg ml^−1 per hour, the “diffusion exponent n of AmB release” value is recorded as 0.7771 and the “rate constant k of AmB release” value is roughly 0.4387. In data set [3], the “minimum gel concentration needed for gelation” value was roughly 1.0 wt% and the gelation time is reported as 10 min.
